Literature values as cited in patent US20060222641A1, “Method and composition for preventing or reducing edema, deep vein thrombosis and/or pulmonary embolism” (priority 2003, published 2006).

Test system: fibrinolytic activity in the plasma
Conditions: oral administration

B1: nattokinase: serine proteinase of approximately 275 amino acids, approximately 27.7 kDa, fibrinolytic enzyme from natto (Bacillus subtilis) (protein)
chain: AQSVPYGISQIKAPALHSQGYTGSNVKVAVIDSGIDSSHPDLNVRGGASFVPSETNPYQDGSSHGTHVAGTIAALNNSIGVLGVAPSASYAVKVLDSTGSGQYSWIINGIEWAISNNMGVINMSLGGPSGSTALKTVVDKAVSSGIVVAAAAGNEGSSGSSSTVGYPAKYPSTIAVGAVNSSNQRASFSSAGSELDVMAPGVSIQSTLPGGTYGAYNGTSMATPHVAGAAALILSKHPTWTNAQVRDRLESTATYLGNSFYYGKGLINVQAAAQ
modifications: Bacillus Subtilis
- Fibrinolytic activity in the plasma: significant enhancement
